Measurements from article PMC4545750.
pKd: −log10 of the molar value.

Biological target: Krimper Tudor2 domain (562-746) (D. melanogaster) (UniProt A1ZAC4)
Assay: ITC

UniProt A1ZAC4, sequence (A1ZAC4 562-746): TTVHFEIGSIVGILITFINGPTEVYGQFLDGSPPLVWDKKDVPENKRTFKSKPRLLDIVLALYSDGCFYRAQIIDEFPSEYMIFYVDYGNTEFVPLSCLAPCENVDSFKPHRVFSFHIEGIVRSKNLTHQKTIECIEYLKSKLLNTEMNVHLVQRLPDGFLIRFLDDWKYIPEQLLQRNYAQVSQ

Row | Substance | pKd
1 | Aubergine peptide (residues 6 to 18) with symmetrically di-methylated arginine 11 (from UniProt O76922 6-18) | 4.79
2 | Aubergine peptide (residues 6 to 18) with symmetrically di-methylated arginine 15 (from UniProt O76922 6-18) | 5.39
